Measured values reported in article PMC7610778 (Science (New York, N.Y.), 2020).
Read-outs that look alike come from different tables or passages of the source. One block for each binder: values may come before it.

T1: Atg19-3D (S390D, S391D, S396D) (S. cerevisiae, UniProt P35193 1-415, S390D | S391D | S396D)
T1 sequence: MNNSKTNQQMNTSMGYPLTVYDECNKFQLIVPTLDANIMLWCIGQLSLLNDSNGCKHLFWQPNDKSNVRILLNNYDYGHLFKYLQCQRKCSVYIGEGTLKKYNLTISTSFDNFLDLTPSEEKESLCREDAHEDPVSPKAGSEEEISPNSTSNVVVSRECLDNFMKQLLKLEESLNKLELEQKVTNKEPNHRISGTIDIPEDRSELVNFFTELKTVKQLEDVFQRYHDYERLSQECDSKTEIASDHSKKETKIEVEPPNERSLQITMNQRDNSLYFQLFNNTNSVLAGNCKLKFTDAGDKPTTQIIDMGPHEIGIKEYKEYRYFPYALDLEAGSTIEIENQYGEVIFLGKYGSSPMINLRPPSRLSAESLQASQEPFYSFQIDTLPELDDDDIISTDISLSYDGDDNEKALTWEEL

B1: Atg12–Atg5-Atg16-mCherry complex (complex)
chain 1: MSRILESENETESDESSIISTNNGTAMERSRNNQELRSSPHTVQNRLELFSRRLSQLGLASDISVDQQVEDSSSGTYEQEETIKTNAQTSKQKSHKDEKNIQKIQIKFQPIGSIGQLKPSVCKISMSQSFAMVILFLKRRLKMDHVYCYINNSFAPSPQQNIGELWMQFKTNDELIVSYCASVAFG
chain 2: MNDIKQLLWNGELNVLVSIDPSFLMKGSPREIAVLRIRVPRETYLVNYMPLIWNKIKSFLSFDPLTDSEKYFWFEHNKTPIPWNYPVGVLFDCLAGKSATFTTSFENQVKDVLTFLRIHLVMGDSLPPTIIPIASSKTQAEKFWFHQWKQVCFILNGSSKAIMSLSVNEARKFWGSVITRNFQDFIEISNKISSSRPRHIPLIIQTSRTSGTFRISQPTISMTGVNPTLKDIEGDILDVKEGINGNDVMVICQGIEIPWHMLLYDLYSKLRSFDGFLYITLVPIKGGDKASSEL
chain 3: MGNFIITERKKAKEERSNPQTDSMDDLLIRRLTDRNDKEAHLNELFQDNSGAIGGNIVSHDDALLNTLAILQKELKSKEQEIRRLKEVIALKNKNTERLNDELISGTIENNVLQQKLSDLKKEHSQLVARWLKKTEKETEAMNSEIDGTK
modifications: Atg12–Atg5 conjugate | Atg12–Atg5 conjugate
B2: Atg18-mEGFP (natural protein)
chain: MSDSSPTINFINFNQTGTCISLGTSKGFKIFNCEPFGKFYSEDSGGYAIVEMLFSTSLLALVGIGDQPALSPRRLRIINTKKHSIICEVTFPTSILSVKMNKSRLVVLLQEQIYIYDINTMRLLHTIETNPNPRGLMAMSPSVANSYLVYPSPPKVINSEIKAHATTNNITLSVGGNTETSFKRDQQDAGHSDISDLDQYSSFTKRDDADPTSSNGGNSSIIKNGDVIVFNLETLQPTMVIEAHKGEIAAMAISFDGTLMATASDKGTIIRVFDIETGDKIYQFRRGTYATRIYSISFSEDSQYLAVTGSSKTVHIFKLGHSMSNNKLDSDDSNMEEAAADDSSLDTTSIDALSDEENPTRLAREPYVDASRKTMGRMIRYSSQKLSRRAARTLGQIFPIKVTSLLESSRHFASLKLPVETNSHVMTISSIGSPIDIDTSEYPELFETGNSASTESYHEPVMKMVPIRVVSSDGYLYNFVMDPERGGDCLILSQYSILMD
B3: mEGFP-Atg21 (natural protein)
chain: MKVLQFNQDATCCVVAASSHQISIFNCDPFGKCFEIDTKNSKKKTSNNNGSASNSESRNNEESILITNGSRDRTDAEEEEDNEDNALVTGNILKEGEFVIEMLFSTSLIAIADRGQGLNKGKKLKIVNTKRKCTICEIVFPHEIVDVVMNRKRMCVLLESDQIFIYDISCMKPLETIDLWEDHYKRSQANSFSNASNTGTLEGDSANLNRVATNLLANATQKSVNGSNPSVRTRRNSLRSKIRPRMVLSNDDRSILCFTAYSSPKKNKPNSEALYDVVIYDTLNVTPVNYLNSVHKGNVACLAVSHDGKLLATASDKGTIIRVFHTGVDSDYMSSRSLFKEFRRGTRLCNLYQLAFDKSMTMIGCVGDTDTIHLFKLDDASNSLPGDNSSNGHWNEEEYILASNSNPSMGTPKEIPLSKPRIANYFSKKIKSSIPNQNLSRNFAYITVNESNRSCLGFPDEFPNQVYIASDDGTFSIYSIPSKPGECVLTKNNKFT

Tests used:
Test in all cases: pull-down
Atg2-mEGFP = Atg2-mEGFP (yeast (S. cerevisiae), UniProt P53855 1-1592)
[1] = biological target: Atg2-GFP-Atg18-CBP complex (yeast (S. cerevisiae), UniProt P53855;P43601)
[2] = biological target: B1
[3] = biological target: B1; remark: listed apart in the source
[4] = biological target: T1, Atg19-3D (S390D, S391D, S396D)

Chain of Atg2-mEGFP (P53855 whole entry): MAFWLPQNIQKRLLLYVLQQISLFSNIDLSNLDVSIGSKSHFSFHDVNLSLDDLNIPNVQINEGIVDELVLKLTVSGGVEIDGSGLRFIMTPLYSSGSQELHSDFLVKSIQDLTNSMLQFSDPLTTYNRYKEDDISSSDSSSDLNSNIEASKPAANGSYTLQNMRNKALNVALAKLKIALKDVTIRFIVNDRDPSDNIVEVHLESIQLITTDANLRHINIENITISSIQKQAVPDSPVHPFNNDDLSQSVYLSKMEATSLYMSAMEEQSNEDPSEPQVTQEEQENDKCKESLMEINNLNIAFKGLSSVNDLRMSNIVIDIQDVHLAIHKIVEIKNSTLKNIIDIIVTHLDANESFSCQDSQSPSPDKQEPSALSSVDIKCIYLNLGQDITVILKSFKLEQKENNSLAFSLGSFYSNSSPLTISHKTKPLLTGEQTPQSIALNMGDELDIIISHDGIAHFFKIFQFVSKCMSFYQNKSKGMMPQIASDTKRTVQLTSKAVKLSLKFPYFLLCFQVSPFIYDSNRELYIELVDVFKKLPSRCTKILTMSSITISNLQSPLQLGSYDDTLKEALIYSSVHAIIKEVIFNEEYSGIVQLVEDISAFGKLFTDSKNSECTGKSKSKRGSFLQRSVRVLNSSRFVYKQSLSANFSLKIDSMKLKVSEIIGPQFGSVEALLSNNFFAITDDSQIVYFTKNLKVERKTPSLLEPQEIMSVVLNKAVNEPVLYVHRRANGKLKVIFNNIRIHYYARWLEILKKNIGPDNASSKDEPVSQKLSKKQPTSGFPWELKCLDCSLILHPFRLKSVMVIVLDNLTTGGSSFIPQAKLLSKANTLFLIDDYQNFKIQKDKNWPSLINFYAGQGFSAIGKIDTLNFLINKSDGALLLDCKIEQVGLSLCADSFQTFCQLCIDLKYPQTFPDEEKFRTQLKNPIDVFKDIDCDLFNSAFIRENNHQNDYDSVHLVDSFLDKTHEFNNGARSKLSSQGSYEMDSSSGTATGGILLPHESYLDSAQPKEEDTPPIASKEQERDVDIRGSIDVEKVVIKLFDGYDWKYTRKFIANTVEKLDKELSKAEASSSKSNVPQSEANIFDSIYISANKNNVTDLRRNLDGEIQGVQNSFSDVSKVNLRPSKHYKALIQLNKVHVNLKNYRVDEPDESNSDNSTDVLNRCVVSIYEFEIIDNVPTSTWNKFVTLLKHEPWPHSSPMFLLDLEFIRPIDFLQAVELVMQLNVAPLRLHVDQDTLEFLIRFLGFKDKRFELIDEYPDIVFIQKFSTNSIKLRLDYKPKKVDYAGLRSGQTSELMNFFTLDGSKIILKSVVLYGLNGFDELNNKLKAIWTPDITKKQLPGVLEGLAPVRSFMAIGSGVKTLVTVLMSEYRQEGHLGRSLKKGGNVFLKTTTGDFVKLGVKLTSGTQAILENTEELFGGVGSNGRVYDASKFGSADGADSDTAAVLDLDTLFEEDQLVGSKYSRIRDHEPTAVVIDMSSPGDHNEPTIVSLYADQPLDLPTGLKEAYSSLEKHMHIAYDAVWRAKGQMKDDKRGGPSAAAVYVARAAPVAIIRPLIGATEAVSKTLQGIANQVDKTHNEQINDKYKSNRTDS
Chain of Atg2-GFP-Atg18-CBP complex (P53855 whole entry, one chain of several): as the sequence (P53855 whole entry) above

Binder: B1
binding result (Atg2-mEGFP): binds | binding result [1]: binds

Binder: B2
binding result [2]: binds

Binder: B3
binding result [3]: binds

binding result [4]: binds
Binder: MEEQREILEQLKKTLQMLTVEPSKNNQIANEEKEKKENENS (domain or fragment) [GST-prApe1 (1-41)]
